Reference: patent publication US7361485

Experiments:
[1] = target: T1, modified pro-caspase-3 with an aggrecanase recognition sequence, P42574
T1 chain: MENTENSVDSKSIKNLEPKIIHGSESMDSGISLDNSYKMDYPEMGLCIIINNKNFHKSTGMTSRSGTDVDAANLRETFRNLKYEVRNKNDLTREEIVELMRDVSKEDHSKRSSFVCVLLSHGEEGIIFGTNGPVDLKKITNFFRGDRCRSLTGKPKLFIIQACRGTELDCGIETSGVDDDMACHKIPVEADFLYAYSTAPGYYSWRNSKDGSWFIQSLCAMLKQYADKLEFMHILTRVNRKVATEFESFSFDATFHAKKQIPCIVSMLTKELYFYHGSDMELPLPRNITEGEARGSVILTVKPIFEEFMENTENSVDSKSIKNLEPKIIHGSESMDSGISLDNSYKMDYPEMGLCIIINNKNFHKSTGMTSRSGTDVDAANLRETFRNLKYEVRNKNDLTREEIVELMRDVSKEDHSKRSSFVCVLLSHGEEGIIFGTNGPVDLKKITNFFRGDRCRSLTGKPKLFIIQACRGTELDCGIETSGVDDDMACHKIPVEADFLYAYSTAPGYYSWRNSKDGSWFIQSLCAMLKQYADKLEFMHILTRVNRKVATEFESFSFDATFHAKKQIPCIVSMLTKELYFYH

[2] = target: T2, modified pro-caspase-7 with an aggrecanase activation sequence, P55210
T2 chain: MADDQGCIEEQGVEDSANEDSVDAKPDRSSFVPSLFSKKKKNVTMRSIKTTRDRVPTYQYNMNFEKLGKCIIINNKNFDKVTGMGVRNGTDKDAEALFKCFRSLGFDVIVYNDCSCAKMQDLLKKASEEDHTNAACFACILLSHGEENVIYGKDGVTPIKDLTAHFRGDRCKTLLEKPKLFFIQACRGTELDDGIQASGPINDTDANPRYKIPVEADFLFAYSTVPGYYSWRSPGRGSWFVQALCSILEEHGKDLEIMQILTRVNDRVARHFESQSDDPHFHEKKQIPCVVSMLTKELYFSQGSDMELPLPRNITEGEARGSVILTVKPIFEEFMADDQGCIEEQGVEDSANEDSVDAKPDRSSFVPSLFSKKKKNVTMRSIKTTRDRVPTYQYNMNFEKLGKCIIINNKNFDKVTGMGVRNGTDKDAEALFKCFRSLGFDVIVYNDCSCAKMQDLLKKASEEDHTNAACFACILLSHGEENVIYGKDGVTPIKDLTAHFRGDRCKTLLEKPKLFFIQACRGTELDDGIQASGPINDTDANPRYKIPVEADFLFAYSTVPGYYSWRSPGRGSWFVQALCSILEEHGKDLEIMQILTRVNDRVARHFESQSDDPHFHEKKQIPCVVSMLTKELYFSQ

B1: aggrecanase (ADAMTS-4) (protein)
chain: FASLSRFVETLVVADDKMAAFHGAGLKRYLLTVMAAAAKAFKHPSIRNPVSLVVTRLVILGSGEEGPQVGPSAAQTLRSFCAWQRGLNTPEDSDPDHFDTAILFTRQDLCGVSTCDTLGMADVGTVCDPARSCAIVEDDGLQSAFTAAHELGHVFNMLHDNSKPCISLNGPLSTSRHVMAPVMAHVDPEEPWSPCSARFITDFLDNGYGHCLLDKPEAPLHLPVTFPGKDYDADRQCQLTFGPDSRHCPQLPPPCAALWCSGHLNGHAMCQTKHSPWADGTPCGPAQACMGGRCLHMDQLQDFNIPQAGGWGPWGPWGDCSRTCGGGVQFSSRDCTRPVPRNGGKYCEGRRTRFRSCNTEDCPTGSALTFREEQCAAYNHRTDLFKSFPGPMDWVPRYTGVAPQDQCKLTCQAQALGYYYVLEPRVVDGTPCSPDSSSVCVQGRCIHAGCDRIIGSKKKFDKCMVCGGDGSGCSKQSGSFRKFRYGYNNVVTIPAGATHILVRQQGNPGHRSIYLALKLPDGSYALNGEYTLMPSPTDVVLPGAVSLRYSGATAASETLSGHGPLAQPLTLQVLVAGNPQDTRLRYSFFVPRPTPSTPRPTPQDWLHRRAQILEILRRRPWAGRK
- caspase activity (DEVD-pNA, A405) [1]: Upon incubation of the various pro-caspase variants with their respective target enzymes a clear increase in caspase activity was observed.
- caspase activity (DEVD-pNA, A405) [2]: Upon incubation of the various pro-caspase variants with their respective target enzymes a clear increase in caspase activity was observed.
